# Experimental data reported in patent US20240240160A1, “NOVEL OLIVETOL SYNTHASES FOR C[…]” (priority 2021, published 2024).
# Tested on: E. coli derivative strain which overexpressed an acyl-CoA synthetase (fadD) gene and expressed an olivetolic acid cyclase (OAC) from Cannabis sativa
# Assay: OL, OLA and PDAL production in E. coli from plasmid-expressed Type-III PKS genes
# Assay type: cell-based
# Details: gene on plasmid; for Total: OL + OLA + PDAL; for OL / OLA / PDAL: constitutive promoter, culture spiked with 4 mM hexanoic acid
# Procedure: To test olivetolic acid production in E. coli, strains comprising a putative OLS gene and an OAC gene from C. sativa were inoculated in multi-well plates containing LB supplemented with 1% glucose and appropriate concentrations of antibiotics. After 6 hours of cultivation at 32° C., the cells were transferred with a 10% inoculum to a P-limited seed medium (see Table 2) and cultivated for ˜18 hours at 32° ° C. to reach an OD of 2.0-4.0. The cultures were transferred with a 20% inoculum in a P-minimal medium (see Table 3) supplemented with 2% glucose and appropriate concentrations of antibiotics. After 3 hours of cultivation at 32° C., the culture was spiked with 4 mM hexanoic acid (˜OD 1.5-2.0). The resulting cultures were then harvested at either 3 hours or 21 hours post hexanoic acid spike; a final OD was taken. 300 μL of butyl acetate containing 500 mg/L undecanoic acid was added to each multi-well plate. The plates were then vortexed for 30 minutes at 1500 rpm and centrifuged for 10 minutes at 4500 rpm. 50 μL of organic layer was transferred to a 96-well plate and derivatized with 50 μL of N,O-Bis(trimethylsilyl)trifluoroacetamide (BSTFA). The plate was then incubated at room temperature for 2 hours to allow for complete derivatization. The samples were then run on GC-FID for analytical quantification of olivetolic acid (OLA), olivetol (OL), PDAL, and hexanoic acid.
# Olivetol, PDAL, OLA, HTAL, CBGA and combinations thereof were analyzed by LCMS or LCMS/MS methods using C18 reversed phase chromatography coupled to either EXACTIVE™ (ThermoFisher) or QTRAP® 4500 (Sciex) mass spectrometers.
# For reversed phase LCMS, compounds were identified by their LC retention times and MRM transitions specific to the compounds. LCMS/MS analysis was conducted on a Shimadzu UHPLC system coupled with AB Sciex QTRAP 4500 mass spectrometer. Agilent Eclipse XDB C18 column (4.6×3.0 mm, 1.8 μm) was used with a 1-min gradient elution at 1 mL/min using water containing 0.1% ammonia acetate as mobile phase A and 90% methanol containing 0.1% ammonia acetate as mobile phase B. The LC column temperature was maintained at 45° C. Negative ionization mode was used for all the analytes.
# The genes for 20 Type-III PKS enzymes were codon optimized for E. coli and cloned under control of a constitutive promoter into an expression vector (p15a replicon, carbenicillin resistance marker). The 20 plasmids were transformed into an E. coli derivative strain which overexpressed an acyl-CoA synthetase (fadD) gene and expressed an olivetolic acid cyclase (OAC) from Cannabis sativa.
# The in vivo assay procedure and analytical methods were performed as described above.
Molecule,Total,OL,OLA,PDAL
"B1Q2B6: Cannabis sativa olivetol synthase (OLS), 3,5,7-trioxododecanoyl-CoA synthase (protein, listed as Cannabis sativa, (1)..(385) B1Q2B6 OLIS_CANSA 3,5,7-trioxododecanoyl-CoA synthase) MNHLRAEGPASVLAIGTANPENILLQDEFPDYYFRVTKSEHMTQLKEKFRKICDKSMIRKRNCFLNEEHLKQNPRLVEHEMQTLDARQDMLVVEVPKLGKDACAKAIKEWGQPKSKITHLIFTSASTTDMPGADYHCAKLLGLSPSVKRVMMYQLGCYGGGTVLRIAKDIAENNKGARVLAVCCDIMACLFRGPSESDLELLVGQAIFGDGAAAVIVGAEPDESVGERPIFELVSTGQTILPNSEGTIGGHIREAGLIFDLHKDVPMLISNNIEKCLIEAFTPIGISDWNSIFWITHPGGKAILDKVEEKLHLKSDKFVDSRHVLSEHGNMSSSTVLFVMDELRKRSLEEGKSTTGDGFEWGVLFGFGPGLTVERVVVRSVPIKY",1072 µM,324 µM,279 µM,470 µM
"A0A0D9W1R8: Type-III PKS enzyme from Leersia perrieri (protein, listed as Leersia perrieri, (1)..(402) ProtKB - A0A0D9W1R8) MGSQGEYYNKEGRGQAAILGIGSAVPPYELPQSSFPDYYFDVSNSNHRQDLKAKFAKICERTMIEKRCVYMSEEFLRSNPSVTAYSSPSIDVRQRLTDATVPELGAAAARVAIADWGRPASEISHLVMCSTVSGCMPGADYEVVKLLGLPLSTKRCMMYHIGCHGGGTVLRIAKDIAENNPGARVLVVCSEVISMALRGPSDSNMGNLVGQALFGDAGAAVVVGTDPVESCGERALFEMVAAMQDIIPDTEEMVAKLREDGLLYSLHRDVPVHIEANIEAIVNKSGVGAKAADWNEDVFWLVHPGGRDILDRVARRLGLRHDKVEVSREVMRKHGNTLSSCVVIAMEEMRRRSAERGMGTAGEGLEWGLLFGFGPGLTVETILLRAPLTHPPPCAHAAVRPQ",0 µM,0 µM,0 µM,0 µM
"AAZ32093.1: Type-III PKS enzyme from Oncidium Gower Ramsey (protein, Oncidium hybrid cultivar; (1)..(391) AAZ32093.1, Type-III PKS enzyme from Oncidium Gower Ramsey) MPSLESIKNAPKTDGFASILAIGSANPENIIEQSTYPDFFFHLTNSEHLVDLKNKFQRICDKTAIRKRHFAWNEELLTANPCLRTFMDNSLNVRQEFVIREIPKLGAQAATKAIQEWGQSKSRITHLIFSTTSGMDLPGADYQLTQILGLNPNIERVMLYHQGCFAGGTTLRLTKSLAESRKGARVLVVCAETTSALTFRAPSEEHQDDLVVQALFGDGASALIVGADPDEAADERASFIIVSTSQVLLSDSAGAIGGHLSEGGLIVTLHRDVPQIVSKNVGNCLKEAFTPLGISDWNSIFWVPHPGGPAILDQIEERVGLNPEKLIISRHMLAEYGNMLGVSVHFALDEMRKRSAKEGKATTGEGLDWGVLLGIGPGITVETVVLHSVRI",16 µM,16 µM,0 µM,0 µM
"AFU07710.1: Type-III PKS enzyme from Paphiopedilum × areeanum (protein, Paphiopedilum x areeanum; (1)..(393) AFU07710.1) MPGLENRKKVEVPKRAKDLATIMAIGRANPPNAVEQSTFPDFYFRVTNNEHLVGLMKKFQCICEKTVIRRRHFVWDEEILNANPCLRTHMEPSFNVRQKIAVAEIPKMGAEAASRAIKEWGQPKSRITYLIFYTMSGMDLPVTDYKLTRILNLNLNVYQVMLYQWDCIAGGTILCWAKCSAESQKGTRVLVVSSETTTVLVRAPSEDYHDDLVTQDLFGDGASALIVGADPDEEAKERPIFTIVSTSQVVLPDSDGVIGGHLSEGGLMATLHRDVALIISKNVSKCLEEAFVTLGISDWNSIFWAPHPCRRAILDQVEERVGLKPEKLWASRHVLAEFGNMTSVCVHFVLDEIHNRSTQGKTTTGEGFDWGVLFGFGPGLIVETVILRSVPLN",0 µM,0 µM,0 µM,0 µM
"AFU07709.1: Type-III PKS enzyme from Paphiopedilum armeniacum (protein, listed as Paphiopedilum armeniacum, (1)..(394) AFU07709.1) MPGLENRKKVEAPKREEGLATIMAIGRANPPNAMEQSTFPDFYFRVTNSEHMVGLKKKFQRICEKTAIRRRHFVWNEEILNANPCMCTHMEPSLNVGQKIVVAEIPKLGAEAASRAIEVWGQPKSRITHLIFCTTSSMDLLGADYKITRILGLNLNVQRGMLYQQGCFAGGTVLRLAKCFTESQKGTRVLVVCSENAIILVRASSEDYQDDLVTQALFADGASALIVGEDPDEEAKERPIFTIISTTHVILPDSDGAIGGHLGEGGLMATLQRDVPFIISKNVNTCLEESFAPLVISDWNSVFWAPHSGGRAILDQVEERAGLKPEKLWASRHVLAKYGNMSSVCVHFVLDEIRKRSTKEGKTTTGEGFDWGVLFGFGLGLTVETVILRSVPLN",0 µM,0 µM,0 µM,0 µM
"A0A0D9WZ61: Type-III PKS enzyme from Leersia perrieri (protein, listed as Leersia perrieri, (1)..(402) ProtKB - A0A0D9WZ61) MAPVPANGAATATATTQEIRRAQRADGPATVLAIGTANPETYVSQDEYADYYFRITKSEHLPELKDKLRRICNKSGIDKRFMYVNEDVMEAHPEFADRNQSSLNARVEIASKAVPELAAAASAKAIAEWGRPATDITHLIFSTYSGVKAPSGDRLLASLLGLRPNVSRTTLSLHGCYGGGRALQLAKELAENNRGARVLVACAEMTLIAFYGPEVGCNDTIVGQALFGDGSGAVIVGADPVDAAGERPLFEMAFASQTTVPDSEGAITMQHTKGGMDYHIGSGIPEMLAGNIERCLADAFDSIGVAADWKDLFWAVHPGGRRILDLIEEALGLDNGAMASRQVLREFGNMSGTTVIFVLNELRRRFKANGAEGADWGALMAFGPGVTIETMLLRVAAGLKGN",34 µM,34 µM,0 µM,0 µM
"PKU71375.1: Type-III PKS enzyme from Dendrobium catenatum (protein, listed as Dendrobium catenatum, (1)..(382) PKU71375.1) MAQRADGSASILAIGKATPENFLEQSTYPDYFFRVTNSQHLIDLKKKFQRICDKTSIRKRHFILNEELITKNPCLSKFMENSINTRLEIYAKEIQKLAVEAATKAIQEWGQPKSCITHLIFSTLSDPGLPCGDYHLLQTLGLSPNIERVVILQHGCFAGGTMLRLAKCLAESHKGARVLVVSAETTTMLFRGPSEEHQEDLITQALFADGASALIVGVNPNETIGERASFVITSASQVILPNSSHAITGHLSEGGIKATIHKDVPNLLSNNIGKILEEAFTPLGISNWNSIFWVVHPGGRAILDQLEERVGLKPEKLMISRHVLAEYGNLMGVCVHFVLDEMRKRSIDEGNTTTGEGLEWGVLLGFGLGVTIETIVLQSVSL",0 µM,0 µM,0 µM,0 µM
"XP_020572025.1: Type-III PKS enzyme from Phalaenopsis equestris (protein, listed as Phalaenopsis equestris, (1)..(393) XP_020572025.1) MPSFPSVKKAPTAEGFASILAIGRANPENFIEQSAYPDFFFRVTNSEHLVDLKKKFQRICDKTAIRKRHFVWNEEFLTANPCFSTFMDKSLNVRQEVAIREIPKLGAKAATKAIEDWGQPKSRITHLIFCTTSGMDLPGADYQLTQILGLNPNVERVMLYQQGCFAGGTTLRLAKCLAESRKGARVLVVCAETTTVLFRAPSEEHQDDLVTQALFADGASAVIAVIVGADPDEAADERASFVIVSASQVLLPDSAGAIGGHVSEGGLLATLHRDVPQIVSKNVGKCLEEAFTPFGISDWNSIFWVPHPGGRAILDQVEERVGLKPEKLSVSRHVLAEYGNMSSVCVHFALDEMRKRSAKEGKATTGEGLEWGVLFGFGPGLTVETVVLQSVPI",0 µM,0 µM,0 µM,0 µM
"PKA56805.1: Type-III PKS enzyme from Apostasia shenzhenica (protein, listed as Apostasia shenzhenica, (1)..(393) PKA56805.1) MPGVEAVAQNISPARSDGLAAILAIGRANPPNIVEQSSFADLYFRLHNSEHLVDLKKKLQRICDRTAIRKRHFVWDEELLMANPCLRTVTEPSLNARQKVAITEIPKLGAAAATNAIAEWGRPKSDITHLIFCTTSGMDLPGADYQLIRLLGLNDNIQRIMLYQQGCFAGGTVLRLAKVLAESRRSARVLIVCAETTTVLVRSPSVENQDDLVTQALFADGASALIVGADPNAGEKPVFSVFSTSQVLLPDSDGAIGGHVGENGLTATLHRDVPAVISKNVGKCLEEAFTPLGISDWNSIFWAAHPGGRAILDQVEERVGLKPEKMWASRHVLAEYGNMSSVSVHFALDEIRRRSAKEGKATTGDGFEWGVLFGFGPGLTVETVVLRSAPISA",37 µM,27 µM,10 µM,0 µM
